We go through one molecule from patent publication US7625566.

In experiment [1] the target is human monoclonal anti-HIV-1 antibody 2F5 (isotype not stated in the assay). The experiment can be described thus: competition ELISA: 500 ng/mL 3H6 preincubated with 31 ng/mL 2F5, then 2F5 binding to coated …. (ELISA stands for enzyme-linked immunosorbent assay.)
Experiment [2] has the same target. The experiment in a line: competition ELISA: 50 ng/mL 3H6 preincubated with 31 ng/mL 2F5, then 2F5 binding to coated ….
The target is the same in experiment [3]. The experiment can be described thus: cell-based or functional assay.
Experiment [4] addresses human anti-HIV-1 (gp120 recognizing) antibody 2G12. The experiment can be described thus: cell-based or functional assay.

B1: murine monoclonal anti-idiotypic antibody (Ab2) 3H6 (antibody, V domains shown)
VH: GVQLQQSGPELVKTGASVKISCKASGYSFTDYFMHWVKQSHGKSLDWIGYINCYTGATNYSQKFKGKATFTVDTSSNTAYMQFNSLTSEDSAVYYCARTSIGYGSSPPFPYWGQGTLVTVSA
VL: ETTVTQSPASLSMSIGEKVTIRCITSTDIDDDMNWYQQKPGEPPRLLISDGNTLRPGVPSRFSSSGYGTDFVFTIENMLSEDVADYYCLQSDNLPYTFGGGTNLEIK
In experiment [1], B1 yielded a reduction of OD of 83%. In experiment [2], the reduction of the OD came to 37%. In addition, in experiment [3], the depletion of 2F5 (10 µg/mL) neutralization of HIV-1 NL4-3 on AA-2 cells, p24 ELISA worked out at 3.9 µg/mL; the reduction of 2F5 (10 µg/mL) neutralization at 3.9 µg/mL 3H6 came out at 95%; the reduction of the neutralizing capacity of 2F5 (10 µg/mL) at 1.9 µg/mL 3H6 came to 5%. The reduction of 2G12 (10 µg/mL) neutralization of HIV-1 NL4-3 in experiment [4] is above 250 µg/mL.
